{"source": "paper PMC2925294", "test_in_all_cases": "cryo-EM structure", "key": {"[1]": {"target": "epsilon15 bacteriophage capsid stapling protein gp10 (epsilon15 bacteriophage)"}, "[2]": {"target": "epsilon15 bacteriophage capsid stapling protein gp10 (epsilon15 bacteriophage)", "remark": "listed apart in the source"}, "[3]": {"target": "epsilon15 bacteriophage tail hub (epsilon15 bacteriophage)"}, "[4]": {"target": "epsilon15 bacteriophage tail-spike (gp20) (epsilon15 bacteriophage)"}}, "note": "Where two headings read alike, the source gives them in different places.", "data": [{"substance": "epsilon15 bacteriophage capsid stapling protein gp10 (natural protein)", "values": [{"measurement": "stoichiometry N", "setting": "[1]", "result": 2}, {"measurement": "stoichiometry N", "setting": "[2]", "result": 2}]}, {"substance": "epsilon15 bacteriophage tail hub (natural protein)", "values": [{"measurement": "stoichiometry N", "setting": "[3]", "result": 6}]}, {"substance": "epsilon15 bacteriophage tail-spike (gp20) (natural protein)", "values": [{"measurement": "stoichiometry N", "setting": "[4]", "result": 3}]}]}
